Experimental data reported in the supplement of paper PMC10065799, “High-throughput profiling of sequence recognition by tyrosine kinases and SH2 domains using bacterial peptide display” (eLife, 2023).

What was measured:
[1] = tested on: AncSZ; assay: phosphorylation enrichment, bacterial display (enrichment ratio); higher = better substrate or ligand; peptides without Tyr show the background
[2] = molecular target: EPHB1 (UniProt P54762); assay: as above
[3] = molecular target: EPHB2 (UniProt P29323); assay: as above
[4] = molecular target: FGFR1 (UniProt P11362); assay: as above
[5] = molecular target: FGFR3 (UniProt P22607); assay: as above
[6] = tested on: Fer (mouse); assay: as above
[7] = molecular target: Fes (UniProt P07332); assay: as above
[8] = molecular target: Fyn (UniProt P06241); assay: as above
[9] = molecular target: Hck (UniProt P08631); assay: as above
[10] = molecular target: Jak2 (UniProt O60674); assay: as above
[11] = molecular target: MERTK (UniProt Q12866); assay: as above
[12] = tested on: c-Abl (mouse); assay: as above
[13] = tested on: c-Src; assay: as above
[14] = molecular target: Grb2 SH2 (UniProt P62993); assay: SH2 binding enrichment of the phosphorylated peptide, bacterial display (enrichment ratio); higher = better substrate or ligand; peptides without Tyr show the background
[15] = molecular target: SHP2-C SH2; assay: as above
[16] = molecular target: c-Src SH2; assay: as above
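For SH2 binding enrichment of the phosphorylated peptide, bacterial display in this document: peptide library displayed on the E. coli surface as eCPX fusions, selected cells deep-sequenced, score is each peptide's frequency after selection divided by its frequency in the input.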
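For phosphorylation enrichment, bacterial display in this document: 11-residue human phosphosite peptides and single-mutation variants displayed on the E. coli surface, counted by deep sequencing, each peptide's frequency after selection divided by its frequency in the unselected input library; frequency after pTyr selection over input frequency; kinase dosed for 20-30% of maximal phosphorylation in three min.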

Sequence of Hck (P08631 whole entry, looked up): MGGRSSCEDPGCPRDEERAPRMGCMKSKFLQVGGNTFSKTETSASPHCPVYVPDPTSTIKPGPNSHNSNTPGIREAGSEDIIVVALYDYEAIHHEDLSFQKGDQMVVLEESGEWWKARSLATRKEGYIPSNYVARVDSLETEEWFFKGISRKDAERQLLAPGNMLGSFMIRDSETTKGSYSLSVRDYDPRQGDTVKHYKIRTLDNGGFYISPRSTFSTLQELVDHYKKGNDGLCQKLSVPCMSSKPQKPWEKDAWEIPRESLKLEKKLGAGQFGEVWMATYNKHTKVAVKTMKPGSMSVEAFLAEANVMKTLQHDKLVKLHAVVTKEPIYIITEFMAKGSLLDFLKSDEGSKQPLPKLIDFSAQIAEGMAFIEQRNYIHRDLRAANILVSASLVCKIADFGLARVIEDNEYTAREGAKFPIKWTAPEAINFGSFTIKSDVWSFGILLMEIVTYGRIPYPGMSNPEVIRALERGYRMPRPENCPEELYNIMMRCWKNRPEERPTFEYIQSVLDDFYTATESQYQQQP
Sequence of MERTK (Q12866 whole entry, looked up): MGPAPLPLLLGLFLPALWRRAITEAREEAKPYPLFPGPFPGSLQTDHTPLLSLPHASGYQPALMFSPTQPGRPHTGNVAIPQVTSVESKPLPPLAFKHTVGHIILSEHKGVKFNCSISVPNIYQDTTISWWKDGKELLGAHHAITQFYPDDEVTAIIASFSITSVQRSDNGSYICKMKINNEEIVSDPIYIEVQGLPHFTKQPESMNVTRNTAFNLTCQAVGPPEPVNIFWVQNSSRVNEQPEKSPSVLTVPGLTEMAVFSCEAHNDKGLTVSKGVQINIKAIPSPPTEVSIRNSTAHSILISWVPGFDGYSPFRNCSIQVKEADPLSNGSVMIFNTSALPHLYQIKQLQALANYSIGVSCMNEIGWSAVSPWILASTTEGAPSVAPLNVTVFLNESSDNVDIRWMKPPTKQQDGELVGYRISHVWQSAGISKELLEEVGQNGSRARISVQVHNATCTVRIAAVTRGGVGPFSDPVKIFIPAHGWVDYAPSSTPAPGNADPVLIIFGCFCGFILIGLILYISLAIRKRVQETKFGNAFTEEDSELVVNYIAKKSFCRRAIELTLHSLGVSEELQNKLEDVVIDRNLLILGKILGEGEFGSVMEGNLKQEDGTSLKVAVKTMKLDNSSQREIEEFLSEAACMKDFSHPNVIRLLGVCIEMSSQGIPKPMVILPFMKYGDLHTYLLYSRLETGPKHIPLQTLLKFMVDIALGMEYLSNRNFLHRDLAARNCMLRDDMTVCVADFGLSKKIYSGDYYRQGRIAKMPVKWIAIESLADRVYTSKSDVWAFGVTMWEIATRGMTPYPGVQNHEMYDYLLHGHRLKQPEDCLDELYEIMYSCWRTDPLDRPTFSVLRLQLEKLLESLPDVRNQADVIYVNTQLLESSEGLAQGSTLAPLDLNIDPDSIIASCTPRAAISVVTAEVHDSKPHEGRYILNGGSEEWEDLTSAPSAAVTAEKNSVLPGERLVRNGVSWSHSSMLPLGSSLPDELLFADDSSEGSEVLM
Sequence of Fyn (P06241 whole entry, looked up): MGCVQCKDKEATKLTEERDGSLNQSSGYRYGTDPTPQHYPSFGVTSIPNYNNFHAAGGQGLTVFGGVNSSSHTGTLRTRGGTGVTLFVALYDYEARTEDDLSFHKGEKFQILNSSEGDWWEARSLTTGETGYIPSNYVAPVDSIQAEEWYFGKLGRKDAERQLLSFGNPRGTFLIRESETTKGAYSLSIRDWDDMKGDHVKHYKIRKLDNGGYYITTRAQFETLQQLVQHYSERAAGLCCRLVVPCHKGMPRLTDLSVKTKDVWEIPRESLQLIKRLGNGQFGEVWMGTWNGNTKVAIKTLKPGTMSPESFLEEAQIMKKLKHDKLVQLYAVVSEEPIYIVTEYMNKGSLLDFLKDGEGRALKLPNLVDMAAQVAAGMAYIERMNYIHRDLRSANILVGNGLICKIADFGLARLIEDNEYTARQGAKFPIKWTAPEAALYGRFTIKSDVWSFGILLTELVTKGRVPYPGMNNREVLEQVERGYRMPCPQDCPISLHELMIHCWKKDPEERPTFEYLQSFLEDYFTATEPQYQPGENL
Sequence of EPHB2 (P29323 whole entry, looked up): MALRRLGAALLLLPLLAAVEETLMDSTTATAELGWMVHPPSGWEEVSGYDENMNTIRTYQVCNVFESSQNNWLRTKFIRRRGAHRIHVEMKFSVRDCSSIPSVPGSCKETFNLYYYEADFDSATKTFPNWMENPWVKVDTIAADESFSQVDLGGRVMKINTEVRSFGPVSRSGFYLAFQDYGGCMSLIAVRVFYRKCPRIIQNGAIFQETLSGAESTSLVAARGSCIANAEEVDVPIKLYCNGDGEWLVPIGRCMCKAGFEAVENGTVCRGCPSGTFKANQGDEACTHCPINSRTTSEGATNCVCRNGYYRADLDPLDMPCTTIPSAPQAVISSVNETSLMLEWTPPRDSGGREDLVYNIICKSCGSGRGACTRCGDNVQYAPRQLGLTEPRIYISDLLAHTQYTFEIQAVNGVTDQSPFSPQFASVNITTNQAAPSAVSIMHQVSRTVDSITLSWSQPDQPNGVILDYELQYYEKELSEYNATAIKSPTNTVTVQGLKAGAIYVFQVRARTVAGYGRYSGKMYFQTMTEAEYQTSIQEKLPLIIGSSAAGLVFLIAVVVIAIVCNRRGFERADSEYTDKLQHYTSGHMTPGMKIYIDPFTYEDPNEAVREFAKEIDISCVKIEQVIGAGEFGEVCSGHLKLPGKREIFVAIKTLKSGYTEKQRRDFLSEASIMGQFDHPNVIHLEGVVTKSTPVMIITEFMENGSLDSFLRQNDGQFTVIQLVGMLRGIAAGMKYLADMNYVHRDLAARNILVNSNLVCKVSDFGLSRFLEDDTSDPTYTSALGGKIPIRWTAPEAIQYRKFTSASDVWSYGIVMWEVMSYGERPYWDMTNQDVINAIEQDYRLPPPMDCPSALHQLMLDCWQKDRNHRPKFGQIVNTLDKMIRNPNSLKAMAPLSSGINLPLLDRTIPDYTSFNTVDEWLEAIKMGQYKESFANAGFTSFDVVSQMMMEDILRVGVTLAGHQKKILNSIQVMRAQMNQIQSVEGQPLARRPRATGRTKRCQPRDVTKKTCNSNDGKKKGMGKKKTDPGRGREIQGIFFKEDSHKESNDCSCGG
Sequence of FGFR3 (P22607 whole entry, looked up): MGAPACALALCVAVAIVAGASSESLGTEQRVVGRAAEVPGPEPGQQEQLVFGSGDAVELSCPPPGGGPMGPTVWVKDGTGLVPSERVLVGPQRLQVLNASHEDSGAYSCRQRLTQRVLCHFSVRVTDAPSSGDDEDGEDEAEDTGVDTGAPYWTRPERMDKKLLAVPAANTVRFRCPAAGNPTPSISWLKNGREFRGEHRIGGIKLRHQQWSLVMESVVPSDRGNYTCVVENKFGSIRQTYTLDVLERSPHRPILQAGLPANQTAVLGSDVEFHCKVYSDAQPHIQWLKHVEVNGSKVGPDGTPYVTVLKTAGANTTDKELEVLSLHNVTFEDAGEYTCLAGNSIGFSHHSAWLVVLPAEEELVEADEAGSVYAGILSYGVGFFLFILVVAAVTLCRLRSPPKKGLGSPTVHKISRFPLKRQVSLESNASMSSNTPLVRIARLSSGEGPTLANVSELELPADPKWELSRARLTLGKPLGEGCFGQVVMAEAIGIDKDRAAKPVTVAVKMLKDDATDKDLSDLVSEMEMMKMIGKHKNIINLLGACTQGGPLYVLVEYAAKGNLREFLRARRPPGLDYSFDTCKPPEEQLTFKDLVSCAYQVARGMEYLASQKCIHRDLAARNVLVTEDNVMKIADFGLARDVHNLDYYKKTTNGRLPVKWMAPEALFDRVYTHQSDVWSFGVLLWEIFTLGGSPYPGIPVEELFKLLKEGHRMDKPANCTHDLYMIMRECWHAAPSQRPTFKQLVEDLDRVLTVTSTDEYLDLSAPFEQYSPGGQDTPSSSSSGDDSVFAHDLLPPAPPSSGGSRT
Sequence of Fes (P07332 whole entry, looked up): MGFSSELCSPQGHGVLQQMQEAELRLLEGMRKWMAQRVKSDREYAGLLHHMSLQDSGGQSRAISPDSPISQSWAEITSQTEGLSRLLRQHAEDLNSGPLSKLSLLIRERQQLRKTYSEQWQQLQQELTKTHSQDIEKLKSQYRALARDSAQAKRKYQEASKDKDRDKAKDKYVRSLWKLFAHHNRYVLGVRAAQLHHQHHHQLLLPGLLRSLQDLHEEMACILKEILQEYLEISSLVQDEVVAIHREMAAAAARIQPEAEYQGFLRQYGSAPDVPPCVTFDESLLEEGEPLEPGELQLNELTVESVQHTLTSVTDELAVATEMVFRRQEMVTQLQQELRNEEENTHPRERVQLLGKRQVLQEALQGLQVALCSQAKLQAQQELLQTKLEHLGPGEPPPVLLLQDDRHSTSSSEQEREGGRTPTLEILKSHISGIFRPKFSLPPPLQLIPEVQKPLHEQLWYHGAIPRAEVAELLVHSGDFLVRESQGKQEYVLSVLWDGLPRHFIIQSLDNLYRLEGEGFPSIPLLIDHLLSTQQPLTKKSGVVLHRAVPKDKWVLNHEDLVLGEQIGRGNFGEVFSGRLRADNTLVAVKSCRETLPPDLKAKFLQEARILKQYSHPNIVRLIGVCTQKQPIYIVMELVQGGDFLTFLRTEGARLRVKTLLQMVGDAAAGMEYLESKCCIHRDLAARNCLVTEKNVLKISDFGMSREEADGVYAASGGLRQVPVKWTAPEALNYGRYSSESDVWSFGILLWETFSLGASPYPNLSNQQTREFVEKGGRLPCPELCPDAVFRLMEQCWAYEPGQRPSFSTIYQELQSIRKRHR
Sequence of Grb2 SH2 (P62993 whole entry, looked up): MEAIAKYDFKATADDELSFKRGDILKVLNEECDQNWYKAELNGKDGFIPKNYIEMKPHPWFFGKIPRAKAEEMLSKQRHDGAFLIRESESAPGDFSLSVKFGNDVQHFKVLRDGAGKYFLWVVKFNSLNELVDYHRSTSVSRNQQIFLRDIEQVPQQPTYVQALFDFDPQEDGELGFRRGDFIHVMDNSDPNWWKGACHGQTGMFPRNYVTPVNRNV

Row | Sequence | phosphorylation enrichment [1] | phosphorylation enrichment [2] | phosphorylation enrichment [3] | phosphorylation enrichment [4] | phosphorylation enrichment [5] | phosphorylation enrichment [6] | phosphorylation enrichment [7] | phosphorylation enrichment [8] | phosphorylation enrichment [9] | phosphorylation enrichment [10] | phosphorylation enrichment [11] | phosphorylation enrichment [12] | phosphorylation enrichment [13] | SH2 binding enrichment [14] | SH2 binding enrichment [15] | SH2 binding enrichment [16]
1 | ARTNEYKIIRT [INA_Y87] | 0.525 | 0.468 | 0.425 | 0.455 | 0.452 | 0.512 | 0.469 | 0.504 | 0.502 | 0.571 | 0.436 | 0.843 | 0.569 | 0.877 | 1.11 | 0.494
2 | PSQRHYVYYYS [PTEN_Y174_R173H] | 1.71 | 1.72 | 0.953 | 9.38 | 6.63 | 1.65 | 1.63 | 2.84 | 2.13 | 4.48 | 12.6 | 1.28 | 4.77 | 1.2 | 3.14 | 2.03
3 | LKGQVYILGLE [ASS1_Y359_R363L] | 1.37 | 0.971 | 0.658 | 0.467 | 0.961 | 0.664 | 1.99 | 0.49 | 0.985 | 1.23 | 0.518 | 0.759 | 0.633 | 0.935 | 1.02 | 0.597
4 | PKAWNYELPAT [PROM1_Y34] | 1.23 | 0.761 | 0.997 | 0.582 | 0.574 | 0.72 | 0.972 | 0.822 | 0.597 | 0.894 | 0.59 | 0.735 | 0.414 | 0.996 | 0.631 | 0.851
5 | SGIYQYIIAKF [FOXL2_Y83] | 1.15 | 10.6 | 5.98 | 6.4 | 4.7 | 9.49 | 1.72 | 4.03 | 6.52 | 0.852 | 8.1 | 6.06 | 3.69 | 1.24 | 1.05 | 1.07
6 | FLENFYDLKKD [MMP3_Y42_YF] | 1.24 | 0.453 | 0.563 | 0.452 | 0.551 | 0.472 | 1.02 | 2.57 | 1.92 | 0.922 | 0.549 | 0.663 | 1.9 | 0.821 | 0.788 | 0.519
7 | ALTDNYMYVVI [HAGH_Y61_L64V] | 1.92 | 12.9 | 13.1 | 11.1 | 9.14 | 7.79 | 1.42 | 1.04 | 1.52 | 2.65 | 4.21 | 0.952 | 1.12 | 0.783 | 0.767 | 0.607
8 | NCLRVYVAGRF [CRB1_Y711_E710V] | 1.71 | 0.497 | 0.627 | 0.447 | 0.758 | 0.434 | 1.15 | 0.535 | 0.414 | 1.08 | 0.339 | 1.03 | 0.567 | 1.11 | 0.97 | 0.678
9 | GVFSRHFTTFD [CLCA1_Y661_Y661H_YF] | 1.31 | 0.953 | 1.1 | 0.644 | 0.814 | 0.946 | 1.05 | 0.48 | 1.03 | 0.483 | 0.166 | 0.346 | 0.184 | 0.674 | 0.612 | 1.78
10 | HTLMKYTDGDQ [PUS7L_Y94_I92M] | 1.34 | 1.17 | 0.634 | 0.813 | 0.897 | 0.666 | 1.48 | 0.595 | 0.682 | 1.26 | 0.463 | 1.08 | 0.788 | 0.794 | 0.757 | 0.563
11 | DGYIDYAEFAK [MCFD2_Y138] | 1.13 | 0.639 | 0.579 | 1.31 | 1 | 0.407 | 1 | 0.635 | 0.657 | 0.917 | 0.455 | 0.674 | 0.912 | 0.733 | 0.47 | 0.661
12 | FAGRDYSLDEF [MYOF_Y1705_G1701A_YF] | 0.986 | 0.433 | 0.567 | 0.497 | 0.708 | 0.451 | 0.969 | 0.454 | 0.51 | 1.01 | 0.45 | 0.639 | 0.572 | 0.699 | 0.712 | 0.69
13 | GFEEAYSVSKK [PAFAH1B1_Y28_F31S_YF] | 0.697 | 0.355 | 0.353 | 0.374 | 0.492 | 0.39 | 0.764 | 0.403 | 0.487 | 0.853 | 0.377 | 0.464 | 0.65 | 1.01 | 0.688 | 0.505
14 | ANAFIYVVQLP [L1CAM_Y420_YF] | 1.19 | 0.701 | 0.743 | 0.538 | 0.855 | 0.559 | 1.32 | 0.631 | 0.693 | 1.02 | 0.909 | 0.724 | 0.678 | 0.85 | 0.668 | 0.478
15 | EWKNNYPRLRE [OPA1_Y582] | 0.563 | 0.337 | 0.442 | 0.383 | 0.483 | 0.4 | 0.607 | 0.422 | 0.441 | 0.564 | 0.404 | 0.797 | 0.371 | 0.738 | 0.55 | 0.453
16 | ARSHIYTFSSC [MEFV_Y741_A744S] | 0.867 | 0.519 | 0.665 | 0.547 | 0.681 | 0.497 | 0.917 | 1.3 | 0.61 | 0.714 | 0.62 | 0.578 | 1.15 | 0.893 | 1.46 | 0.751
17 | TAGEPYHDIRF [BAP1_Y223] | 0.821 | 0.555 | 0.446 | 1.54 | 1.29 | 0.523 | 0.744 | 0.498 | 0.489 | 0.64 | 0.426 | 0.429 | 0.619 | 0.899 | 0.776 | 1.94
18 | RHFVFYFSFLL [PTEN_Y177_R173H_YF] | 1.26 | 0.547 | 1.44 | 0.496 | 0.553 | 0.18 | 0.867 | 0.538 | 0.391 | 0.607 | 0.357 | 0.703 | 0.653 | 1.88 | 0.962 | 1.4
19 | CATIHYNFMCN [TP53_Y234_T230A_YF] | 0.993 | 0.68 | 0.52 | 0.634 | 0.596 | 0.602 | 0.944 | 0.478 | 0.577 | 0.903 | 0.497 | 0.757 | 0.525 | 1.37 | 1.51 | 2.23
20 | LSRDVYEEDSY [RET_Y900] | 1.39 | 0.535 | 0.685 | 0.656 | 0.968 | 0.416 | 1.39 | 0.503 | 0.771 | 1.55 | 0.699 | 0.906 | 0.719 | 0.652 | 0.726 | 0.978
21 | PSQRRYVFFFS [PTEN_Y174_YF] | 1.54 | 0.809 | 0.655 | 0.731 | 1.24 | 0.735 | 1.77 | 0.721 | 0.476 | 1.16 | 0.691 | 1.27 | 0.6 | 1.3 | 1.64 | 0.819
22 | LVMFIYVIFGM [SCN1A_Y1684_A1685V] | 0.694 | 0.496 | 0.615 | 0.583 | 0.604 | 0.366 | 0.673 | 0.517 | 0.571 | 0.477 | 0.365 | 0.468 | 0.275 | 2.05 | 1.49 | 1.1
23 | ILCTVYAFKTR [GRM3_Y754] | 1.52 | 0.577 | 0.478 | 0.543 | 0.715 | 0.61 | 1.49 | 0.528 | 0.624 | 1.33 | 0.609 | 0.696 | 0.599 | 1.3 | 0.985 | 0.794
24 | QDLLLYQTHSE [PKHD1_Y255_F253L] | 1.86 | 1.27 | 1.94 | 0.713 | 1.28 | 1.81 | 1.54 | 1.16 | 1.48 | 1.61 | 0.745 | 0.888 | 1.77 | 0.726 | 0.681 | 0.394
25 | KDFETYQSFQN [CTNND2_Y1157_P1159S_YF] | 0.958 | 2 | 1.17 | 0.5 | 0.691 | 0.493 | 0.984 | 6.89 | 5.29 | 0.798 | 0.484 | 0.668 | 4.94 | 0.846 | 0.816 | 0.523
26 | FFDANYDGKEF [MAPRE2_Y162_YF] | 1.11 | 0.558 | 0.666 | 0.824 | 0.695 | 0.446 | 1.42 | 0.529 | 0.601 | 0.957 | 0.424 | 0.611 | 0.443 | 0.68 | 0.759 | 0.501
27 | KACKHYLTKRT [ZBTB5_Y118_T121K] | 0.667 | 0.493 | 0.662 | 0.629 | 1.19 | 0.668 | 1.17 | 0.595 | 0.582 | 1.3 | 0.605 | 1.05 | 0.581 | 1.94 | 1.85 | 1.72
28 | VVHGSYDEIEG [SEC24A_Y263_S261G] | 0.914 | 0.424 | 0.387 | 0.395 | 0.591 | 0.594 | 0.9 | 0.395 | 0.469 | 0.887 | 0.431 | 1.07 | 0.536 | 0.801 | 0.604 | 22.5
29 | PKEEPYQMQEK [SLC5A3_Y565] | 2.33 | 0.964 | 1.26 | 1 | 1.21 | 0.687 | 1.92 | 0.784 | 0.566 | 1.17 | 0.691 | 0.943 | 0.923 | 0.78 | 0.614 | 0.457
